Positions count from the first letter of the chain named. Blank lines part the entries; values can stand above or below the binder they belong to.
Experiments:
[1] = target: recombinant LG4-5 of LAMA4 coated on ELISA plates; test: cell-based or functional assay
[2] = target: laminin 411 (LAMA4 in complex with gamma1 and beta1 chains); test: cell-based or functional assay
[3] = target: T1, human LAMA4 LG1-3 fragment displayed on 293 cells (pDisplay) (human, UniProt Q16363 830-1430, limits assumed); test: flow cytometry on 293 cells displaying LAMA4 fragments (pDisplay)
T1 sequence: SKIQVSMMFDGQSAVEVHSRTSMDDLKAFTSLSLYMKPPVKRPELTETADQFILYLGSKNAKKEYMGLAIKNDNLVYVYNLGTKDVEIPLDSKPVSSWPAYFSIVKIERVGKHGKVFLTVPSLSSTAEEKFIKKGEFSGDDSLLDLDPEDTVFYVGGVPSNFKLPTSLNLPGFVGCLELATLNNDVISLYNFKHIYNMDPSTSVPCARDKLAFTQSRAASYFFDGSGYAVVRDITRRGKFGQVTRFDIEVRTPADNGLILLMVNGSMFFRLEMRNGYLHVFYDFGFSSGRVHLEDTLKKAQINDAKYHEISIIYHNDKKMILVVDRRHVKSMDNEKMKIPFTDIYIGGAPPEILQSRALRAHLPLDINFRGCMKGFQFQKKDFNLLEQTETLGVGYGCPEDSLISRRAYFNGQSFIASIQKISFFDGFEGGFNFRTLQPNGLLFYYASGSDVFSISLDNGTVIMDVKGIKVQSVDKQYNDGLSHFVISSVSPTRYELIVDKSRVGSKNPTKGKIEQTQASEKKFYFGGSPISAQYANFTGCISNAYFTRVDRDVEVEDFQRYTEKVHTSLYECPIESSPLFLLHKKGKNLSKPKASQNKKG
Method: Monoclonal antibodies against the LG4-5 modules of the G domain of LAMA4 were generated as described in Materials and Methods. The specific binding between the monoclonal antibodies and the LG4-5 modules of the G domain of LAMA4 was confirmed by assessing the monoclonal antibodies' ability to stain LAMA4-fragment-displaying human embryonic kidney 293 cells by flow cytometry. Fluorescent signal was assessed via flow cytometric analyses and plotted as mean fluorescence intensity (MFI) as shown in FIG. 1. A LG1-3-specific LAMA4 antibody was able to bind 293 cells displaying LG1-5 and LG1-3, but not LG4-5 of the LAMA4 protein. Conversely, clones 6C12, 13G10, and 15F7 were able to specifically bind 293 cells displaying LG1-5 and LG4-5, but not LG1-3.
Human LAMA4 G-domains 1-5 and variants were cloned into pDisplay expression construct (Life Technologies) and transiently transfected into 293 cells using standard procedures. Anti-LAMA4 antibodies were incubated with cells for 30 min at 4° C. and followed by anti-mouse-650 for 30 minutes at 4° C. Cells were analyzed for anti-laminin binding by flow cytometry using standard procedures.

[4] = target: T2, recombinant human His-laminin-α4 (R&D Systems) (human, UniProt Q16363-2 826-1816, limits assumed); test: SPR (Biacore T200); Fab or captured-IgG format not given
T2 construct: range 826-end (only the start, Q826, is stated); Bought protein; also called Human LAMA4; human His-laminin-α4 fragment starting at Q826; not shown: 6x His tag
T2 sequence (looked up): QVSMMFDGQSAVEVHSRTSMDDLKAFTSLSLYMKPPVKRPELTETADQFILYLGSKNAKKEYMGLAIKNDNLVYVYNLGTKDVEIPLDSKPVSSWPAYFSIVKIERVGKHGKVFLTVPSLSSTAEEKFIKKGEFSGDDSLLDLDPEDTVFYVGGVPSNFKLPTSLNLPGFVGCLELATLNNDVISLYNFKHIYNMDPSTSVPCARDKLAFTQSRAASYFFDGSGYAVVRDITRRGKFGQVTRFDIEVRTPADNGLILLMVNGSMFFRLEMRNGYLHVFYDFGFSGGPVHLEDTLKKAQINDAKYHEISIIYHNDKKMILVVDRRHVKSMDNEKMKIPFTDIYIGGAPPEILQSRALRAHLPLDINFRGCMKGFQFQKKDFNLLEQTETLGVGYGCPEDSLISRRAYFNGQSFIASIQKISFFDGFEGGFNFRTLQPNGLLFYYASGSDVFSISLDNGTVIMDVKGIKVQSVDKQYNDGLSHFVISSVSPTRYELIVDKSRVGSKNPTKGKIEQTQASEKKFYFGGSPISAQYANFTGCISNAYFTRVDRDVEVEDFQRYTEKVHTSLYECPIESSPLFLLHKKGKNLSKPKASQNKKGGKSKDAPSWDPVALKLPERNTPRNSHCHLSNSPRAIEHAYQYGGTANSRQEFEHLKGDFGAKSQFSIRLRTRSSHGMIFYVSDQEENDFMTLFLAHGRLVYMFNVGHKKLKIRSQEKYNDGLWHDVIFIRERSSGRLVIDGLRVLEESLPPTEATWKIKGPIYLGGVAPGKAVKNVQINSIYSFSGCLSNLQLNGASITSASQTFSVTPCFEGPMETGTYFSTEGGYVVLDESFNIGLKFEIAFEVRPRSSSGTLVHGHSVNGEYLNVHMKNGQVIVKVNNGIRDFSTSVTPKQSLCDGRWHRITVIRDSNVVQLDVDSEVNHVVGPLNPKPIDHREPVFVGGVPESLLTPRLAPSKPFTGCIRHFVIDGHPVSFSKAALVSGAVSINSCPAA

[5] = target: T3, recombinant mouse His-laminin-α4 (R&D Systems) (mouse, UniProt P97927 826-1816, limits assumed); test: as above
T3 construct: range 826-end (only the start, Q826, is stated); Bought protein; also called Murine LAMA4; not shown: 6x His tag
T3 sequence (looked up): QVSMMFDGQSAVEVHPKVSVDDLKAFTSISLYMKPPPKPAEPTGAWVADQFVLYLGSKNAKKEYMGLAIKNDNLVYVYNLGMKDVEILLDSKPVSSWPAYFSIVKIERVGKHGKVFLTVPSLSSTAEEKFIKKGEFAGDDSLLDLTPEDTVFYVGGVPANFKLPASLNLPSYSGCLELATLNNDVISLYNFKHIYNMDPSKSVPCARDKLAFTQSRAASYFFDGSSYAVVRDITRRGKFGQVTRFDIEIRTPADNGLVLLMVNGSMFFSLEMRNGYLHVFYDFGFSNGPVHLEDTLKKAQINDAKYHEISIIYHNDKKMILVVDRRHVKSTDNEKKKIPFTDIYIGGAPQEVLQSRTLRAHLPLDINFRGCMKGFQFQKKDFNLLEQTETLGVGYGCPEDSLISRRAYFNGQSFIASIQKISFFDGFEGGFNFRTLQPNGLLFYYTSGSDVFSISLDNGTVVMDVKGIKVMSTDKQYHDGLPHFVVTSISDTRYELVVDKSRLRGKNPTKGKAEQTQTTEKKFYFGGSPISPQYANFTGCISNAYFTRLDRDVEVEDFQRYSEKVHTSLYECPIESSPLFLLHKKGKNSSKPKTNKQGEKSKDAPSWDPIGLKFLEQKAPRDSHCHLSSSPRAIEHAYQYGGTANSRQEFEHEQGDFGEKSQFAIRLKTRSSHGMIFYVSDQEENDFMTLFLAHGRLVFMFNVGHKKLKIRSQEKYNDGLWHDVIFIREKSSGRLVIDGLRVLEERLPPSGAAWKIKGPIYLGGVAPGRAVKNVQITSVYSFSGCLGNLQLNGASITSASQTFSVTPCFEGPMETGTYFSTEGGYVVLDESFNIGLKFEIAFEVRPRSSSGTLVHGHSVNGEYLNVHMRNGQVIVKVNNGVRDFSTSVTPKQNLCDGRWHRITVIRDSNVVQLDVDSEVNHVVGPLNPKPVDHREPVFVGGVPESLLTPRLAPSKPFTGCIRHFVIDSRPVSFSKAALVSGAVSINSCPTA

- inhibition of LAMA4-mediated WM-266-4 human melanoma cell adhesion (antibody at 20 ug/ml) [1]: ≥ 35%
- inhibition of laminin-411-induced pAkt activation (pAkt/Akt ratio by immunoblot, WM266.4 cells; 20 ug/ml 15F7, 10 ug/ml laminin 411) [2]: ~50%
- binding result [3]: no binding
- Kd [4]: 0.684 nM
- koff [4]: 0.000781 s⁻¹
- kon [4]: 1.14e+06 M⁻¹ s⁻¹
- Kd [5]: 0.627 nM
- koff [5]: 0.000658 s⁻¹
- kon [5]: 1.05e+06 M⁻¹ s⁻¹
B1: mouse monoclonal antibody 15F7 (antibody, V domains shown)
VH: QVQLQQSGTELARPGAAVKLSCKASGYTFTSYGLSWVKQRAGQGLEWIGEIFPRSGNTYYNEKFKGKATLTADKSSSTAYMELRSLTSEDSAVYFCARGVRSPGAMDYWGQGTSVTVSS
VL: DIQMTQSSSSFSVSLGDRVTITCKASEDIYNRLAWYQQKPGNAPRLLISGATSLETGVPSRFSGSGSGKDYTLSITSLQTEDVATYYCQQYWSIPYTFGGGTNLEIKR
notes: Mouse hybridoma antibody; Mouse IgG1 is used as its control; also called m15F7; LG4-5-specific antibody 15F7

- inhibition of LAMA4-mediated WM-266-4 human melanoma cell adhesion (antibody at 20 ug/ml) [1]: ≥ 35%
- binding result [3]: no binding
- Kd [4]: 24.4 nM
- koff [4]: 0.0074 s⁻¹
- kon [4]: 302000 M⁻¹ s⁻¹
- Kd [5]: 11.9 nM
- koff [5]: 0.00449 s⁻¹
- kon [5]: 378000 M⁻¹ s⁻¹
B2: mouse monoclonal antibody 13G10 (antibody, V domains shown)
VH: QVQLQQSGAELARPGASVKLSCKASGYTFTNYGISWVKQRTGQGLEWIGAIYPRSGNTYYNEKFKGKATLTADKSSSTAYMELRSLTSEDSAVYFCARERDYGSSYALDYWGQGTSVTVSS
VL: B1 VL with S63T, I94P, Y96R, N103K

- inhibition of LAMA4-mediated WM-266-4 human melanoma cell adhesion (antibody at 20 ug/ml) [1]: ≥ 35%
- binding result [3]: no binding
- Kd [4]: 3.11 nM
- koff [4]: 0.00102 s⁻¹
- kon [4]: 328000 M⁻¹ s⁻¹
- Kd [5]: 2.38 nM
- koff [5]: 0.00111 s⁻¹
- kon [5]: 469000 M⁻¹ s⁻¹
B3: mouse monoclonal antibody 6C12 (antibody, V domains shown)
VH: QVQLQQPGAELVKPGASVKLSCKASGYTFTTYWMHWVKQRPGQGPEWIGMIHPYSGAINYNEKFKSKATLTVDKSSSTAYMQLSSLTSEDSAVYYCVKQLRLLYYFDYWGQGTTLTVSS
VL: DIVMTQSPSSLTVTAGEKVTMSCKSRQSLLNSGNQKNYLTWYQQKPGQPPKVLIYWASTRESGVPDRFTGSGSGTDFTLTISSVQAEDLAVYYCQNDYSYPLTFGAGTKLELKR

Reference: patent publication US20150259408A1 (PROTHENA BIOSCIENCES, published 2015)
